Where a chain is given by its changes, count along the chain named. In names and notes the source's numbering stands. Several values for one entry are separate records, joined by “and”; a condition that tells them apart may be missing. Identical values can stand only once.
B1: Y424E: TP-DNAP2 variant (protein, listed as Kluyveromyces lactis)
chain: MNDELAFLNSQIDDYSDDIEFLRTEVFRINRYSKSIYSLMKNSSKEAIKETIEFNKYGQEIHSKIKEKEISLIEAIKLMEKKYKYLRSLNKTKDKSKKKKIHTKDIETLKTIYKTKADFDIRNFKNAETFTYENYSLLIPSEKELIDLIPEIEEDYSYYFYVSLTITGPTIFGGVTRKVPIIDTYGDINKDFYNKIKENITKVLDRVPFYEEKESEIICKKVLITLTVNKWESIDKWYKNVKSKSKKFKDFTLFLASDTSKNCVQQCVEYLGGKWNTNYSLEKMIPQQKIVTYIPLLMDIQYVQSMEDLISDFDEPNTDCKNIARLLKWNGHMGVITKIDKDVKINRIQRKRIIDVENKEVKEVFFDIESFSDETKHQIPYLICWSYLGELYYRTGKNCIKEFVEEILSYNVDIILYAWYGSGEDYQHVLPYMKSKCIKDKYIIKNNMITYGELYYENAIIYLKDPYLFILTSLDKASKAFNVINKGEFPHSIIHSWEDLNKILPNWVKIQKRMIEYKDDNKLNIYYKNIEIFENDRNYNTILENAIEYCKVDVLAMEKVWIKFKKLLEKNLNITVSVKTFTLSQLSMKIMESKLPKYVKLYVPTLEEYSKIRNAIYGGRVISKNGIYEENIVYADVVSLYPSAMKLLKHSYGKPKLVDYIDFEKHGIYRVTLLNKHDQEPKNYLNFVPRRINRKLTWEWFKIHEGWYHTYDLIIAKSEGFDIYCHEGFEYPEKDYIFNDFIDTLYSMKETHTACSCEEQPCPIRMVAKIALNGGGYGKFVQKPIDKEIYIVKRDVVAGECDKLQENENGEICIGKRLVKRPLFYNLDSENYDKMIIEKEDEPIYSTQCGISILSASRYRLYKLCKQFENIDIIYSDTDSIFVKQKSVDWELFKSKCGSELGQLDSTIDDTKNAIISKMYIGGAKMYAFEYLNNKNKLITKLHCKGVPNYMLSLNQFKYLMESPDNTIAYKFEIIRRKLVNVITKDLIKDIKQT
B2: TP-DNAP1-4-1: TP-DNAP1 variant (V574F, I777K, L900S), encoded by SEQ ID NO:10 (protein, listed as Kluyveromyces lactis)
chain: MDYKDKALNDLRNVYADFDSLPLDFRQILIKDRATLLQKEDVEKKILERQEDAKKYAEYLKQSEIPERISLPNIKRHKGVSISFEETSEDMVLEPRPFIFDGLNIRCFRRETIFSLKNKILNMVKESSSFKNVSRQSVSFMYFKIFNKGKVIASTKSVNIYEDKIDERLEDLCNNFDDVLKKIIDVTYGYESLFVSETYSYVIFYAKSIYFPQPRCVNNWGNNIPNILTFDSFKLFTANKNNVSCIKQCSRFLWQKDFNTLEEMIEYKNGNICIVTPQLHINDVRDIKSFNDIRLYSESPIKTFSVIDNTITYLFYFKEHLGVIFNITKSRHDRRVTKFSPLSKFSDVKNITVCFDIESYFDPEKESNQVNIPFICCASIIYNKVIGNIVDFEGRDCVAQMIEYVVDICGELNISSVELIAHNGGGYDFHYILSSMYNPAAIKNILIRNNSFISFNFAHDGVKFSVKDSYSFLLCSLANASKAFLNEETFKKTDFPHHDLKTADDLYKVYKEWSSVNTEINHVVEKEKLLITSEHIVNFTKNDKSKTLIEWSKDYCRNDVLVLSKVWLEFKNAFEDIFNCELVDQTMTLAGLSYKLFQANMPFDVELRHPNKEDYFNMREALIGGRCISVNGIYKDVLCLDVKSLYPASMAFYDQPYGSFKRVSSRPKDELGIYYVRVTPNRNNKSNFFPIRSHNKITYNNFEESTYIAWYTNVDIDIGLSEGHNIEYIPFDSYGNIGYSWSKKGKIFEKYIKDVLYKLKIKYEKQNNKVKRNVIKKIMNSLWGKFAQKWVNFEYFIKSEDDIDFESEEAYKIWDTDFMLIKKIKESTYSSKPIQNGVFTLSWARYHMKSIWDAGAKEGAECIYSDTDSIFVHKEHFKKNAKFMLNGLKVPIIGSEVGQSELECEFDKLLCAGKKQYMGFYTYFQDGKPCIKEKKRFKGIPSNYIIPELYAHLLSGADKEAKIQFLKFRREWGSVKGYIENKTVKAT
B3: Y431H, L640Y, I777K, W814N: TP-DNAP1 variant, encoded by SEQ ID NO:8 (protein, listed as Kluyveromyces lactis)
chain: B2 chain with Y431H, F574V, L640Y, W814N, S900L

What was measured:
Assay type in all cases: cell-based, S. cerevisiae
p2-encoded leu2* = experiment: p2 leu2* fluctuation tests in GA-Y021 (p2 mutation rate reporter strain)
Description: For fluctuation tests used to measure p2 mutation rates, leu2* served as a marker for detecting mutational events. leu2* is a disabled version of LEU2, where Q180 is replaced with a TAA stop codon. Q180 is a permissive site where mutation to any other codon other than TAG and TGA results in functional reversion to LEU2. These mutational events can be detected by plating scores of parallel cultures on medium lacking leucine and counting the number distribution of functional LEU2 mutants.
For TP-DNAP2 library screening, each library member was subjected to small-scale leu2* fluctuation tests with six replicates. 190 library members from each yeast library transformation were arrayed and inoculated into liquid SC medium lacking uracil and histidine, and passaged three times at 1:10,000 dilutions. mKate2 fluorescence was measured at every passage on a microplate reader (TECAN Infinite® 200 PRO, settings: λex=588, λem=633) to track p2 copy number stabilization. To perform fluctuation tests, each library member was diluted 1:10,000 into liquid SC medium buffered to pH 5.8 and lacking uracil, histidine, tryptophan, and dilutions were split into six 100 μL replicates. Cultures were grown for 48 hours at 30° C. to reach saturation. Saturated cultures were washed with 200 μL 0.9% NaCl to remove residual leucine and resuspended in 35 μL of 0.9% NaCl. 10 μL of this resuspension was spot plated onto solid SC medium buffered to pH 5.8 and lacking uracil, histidine, tryptophan and leucine. Spot plates were allowed to dry and incubated at 30° C. Colonies were counted after 5 days. Colony counts were used to calculate the expected number of LEU2 functional mutants (m), using the p0 method (Foster, 2006, Methods Enzymol, 409:195-213).
To precisely measure p1 and p2 per-base substitution mutation rates, several modifications were made to the small-scale protocol. First, 36 replicates were performed for reconfirmation of candidate TP-DNAP2 mutators, and 48 replicates for genomic and mutual orthogonality experiments. Titers were also determined for each strain after spot plating by pooling the residual volume from 4 replicates and plating dilutions on YPD. The expected number of LEU2 functional mutants (m) was determined by the Ma-Sandri-Sarkar maximum likelihood estimator (as calculated by the FALCOR tool and corrected for partial plating (Foster, 2006, Methods Enzymol, 409:195-213; Sarkar et al., 1992, Genetica, 85:173-179; Hall et al., 2009, Bioinformatics, 25:1564-1565). The mean mKate2 fluorescence was determined from 50,000 event counts on Attune™ NxT Flow Cytometer and converted to p2 copy number by using a calibration curve. To determine per-base substitution rates, the corrected m was normalized to the average cell titer, the p2 copy number, and the target size for functional leu2* reversion (2.33 bp). 95% confidence intervals were similarly scaled.
To identify error-prone TP-DNAP2s, a small library of TP-DNAP2s diversified at locations hypothesized to be responsible for DNAP fidelity was screened. […] Four distinct site-saturation mutagenesis libraries were generated, each diversifying S370, Y424, L474, or F882 in TP-DNAP2 encoded on pGA55-reTP-DNAP2. Due to unsuccessful attempts to generate a strain with a full deletion of p2-encoded TP-DNAP2 and simultaneous integration of mKate, URA3, and leu2*, each library was transformed into GA-Y021 for convenient screening. However, since GA-Y021 still encodes wt TP-DNAP2 on p2-delORF1-mUL*, p2 mutation rates measured in this format are the result of in tandem replication of p2 by wt TP-DNAP2 and each TP-DNAP2 variant encoded in trans. 6-fold coverage of each library was maintained by picking 190 yeast colonies and passaging under selection for URA3 to stabilize the copy number of p2-delORF1-mUL* in the presence of the newly introduced TP-DNAP2 variants. […]

p1-encoded leu2 (Q180*) = experiment: Large-scale p1 fluctuation tests of p1-encoded leu2 (Q180*), per-base substitution rate; conditions: for Mutation rate (s.p.b.): per-base substitution rate, p1-encoded leu2 (Q180*), measurements taken after 90 generations
Description: All three TP-DNAP1 libraries were screened through small scale p1 fluctuation tests in a metastable S. cerevisiae strain, OR-Y24. OR-Y24 contains w.t. p1 and recombinant p1 that lacks w.t. TP-DNAP1, and instead, encodes a standardized fluorescence reporter of p1 copy number (Table 1), and a disabled version of the LEU2 selection marker (leu2 (Q180*)). As described previously (Ravikumar et al., 2014), leu2 (Q180*) contains a C→T mutation at base 538 in LEU2 at a site permissive to all single point mutants that generate missense mutations. Reversion to functional LEU2 can be detected on medium lacking leucine.
Large-scale fluctuation tests of p1-encoded leu2 (Q180*) were performed to precisely determine per-base substitution rates for individually cloned or isolated TP-DNAP1 variants. Large-scale p1 fluctuation tests are performed similarly to small-scale p1 fluctuation tests, with several modifications. First, large-scale p1 fluctuation tests were typically performed with 36-48 replicates. For highly error-prone TP-DNAP1s obtained from later rounds of screening, fewer replicates (3-16) were used, which is sufficient for similar precision (Foster et al., 2006). Second, p1 copy number was determined by the flow cytometry method, described below. Third, cell titers were measured for each fluctuation test to estimate the average number of cells per culture. Cell resuspensions were diluted and plated on solid SC-UH medium, and colony counts were determined after incubation at 30° C. for 2-3 days. Alternatively, cell resuspensions were diluted and subject to an event-count measurement via flow cytometry. Fourth, inoculums of highly error-prone TP-DNAP 1 s occasionally contained pre-existing mutants, despite the 1:10,000 dilution, so mutant frequencies were estimated by plating pre-cultures on solid SC-UHLW, pH 5.8 medium. Plates were incubated for 2-3 days, in parallel with cultures grown for fluctuation tests. Pre-culture mutant titers were counted to estimate the number of replicates in the fluctuation test expected to contain pre-existing mutants (n). Revertants were counted from all replicates of the fluctuation tests, counts were sorted, and n replicates with the highest counts were omitted from calculations.
To calculate per-base substitution rates, fluctuation data were analyzed by the maximum likelihood method, implemented using newton.LD.plating in rSalvador 1.7 (Zheng, 2017). Phenotypic mutation rates were calculated by normalizing to the average number of cells per culture. Phenotypic mutation rates were divided by the measured p1 copy number and by the number of ways leu2 (Q180*) can revert to LEU2 (2.33 for the ochre codon) to yield per-base substitution rates. 95% confidence intervals were similarly scaled by these factors. All data related to large-scale p1 fluctuation tests are fully described in Table 2.

p1 = p1 copy number by p1-encoded mKate2 fluorescence; conditions: sustained by TP-DNAP1 variant
Summary of the method: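 Copy number was inferred from p1-encoded mKate2 fluorescence in saturated OR-Y24 cultures (triplicate), calibrated linearly against qPCR of p1 leu2 relative to genomic LEU3.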

genomic URA3 gene = experiment: Fluctuation tests of the genomic URA3 gene in the presence of TP-DNAP1 variants; conditions: URA3 locus, strain harbouring p1 and the TP-DNAP1 variant
Procedure: Fluctuation tests of the genomic URA3 gene were performed to determine genomic per-base substitution rates, as previously described (Ravikumar et al., 2014). Fluctuation data were analyzed by the maximum likelihood method, as described for large-scale p1 fluctuation tests. Phenotypic mutation rates were divided by the target size for loss of function of URA3 via base pair substitution (Lang et al., 2008), to yield per-base substitution rates. 95% confidence intervals were similarly scaled by these factors. All data related to genomic URA3 fluctuation tests are fully described in Table 5.

Molecule	Per-base substitution rate pf p2 (p2-encoded leu2*; TP-DNAP2 variant in trans, wt TP-DNAP2 in cis, 36 replicates, (95% C.I.))	Fold increase (p2-encoded leu2*; p2 substitution rate over no variant in trans)	p1 mutation rate (p1-encoded leu2 (Q180*); p1 replication by TP-DNAP1 variant)	Mutation rate (s.p.b.) (p1-encoded leu2 (Q180*); I777K, L900S)	p1 copy number (p1)	Yeast genomic substitution mutation rate (genomic URA3 gene)	Mutation rate (s.p.b.) (p1-encoded leu2 (Q180*))
B1	73.3 (55.2-93.3) ×10^−10	12.3					
B2			~7×10^−6 s.p.b.	7.58 × 10^−6 s.p.b. and 6.87 × 10^−6 s.p.b. and 7.71 × 10^−6 s.p.b.	~5	1.76 × 10^−10 s.p.b.	
B3						2.68 × 10^−10 s.p.b.	2.33 × 10^−6 s.p.b. and 4.29 × 10^−6 s.p.b. and 3.24 × 10^−6 s.p.b.
